{
  "source": "paper PMC4224615",
  "key": {"[1]": {"biological_target": "BG505 SOSIP.664 trimer (HIV-1 BG505)", "test": "negative-stain electron microscopy"}, "[2]": {"biological_target": "BG505 SOSIP.664 trimer, captured by anti-histidine (SPR of Fig. 2d) (HIV-1 BG505)", "test": "SPR"}},
  "data": [
    {"substance": "35O22 Fab", "values": [
      {"measurement": "stoichiometry N (Fabs per trimer)", "setting": "[1]", "value": 3}
    ]},
    {"substance": "35O22 antibody (full-length IgG)", "values": [
      {"measurement": "Kd", "setting": "[2]", "value": 5.6, "unit": "nM"}
    ]}
  ]
}
